In publication PMC2926129 (Regulatory peptides, 2010):
Ends that are not written are not given here.

Biological target: T1, rabbit calcitonin receptor (rabbit, UniProt P79222 23-474)
T1 sequence (looked up): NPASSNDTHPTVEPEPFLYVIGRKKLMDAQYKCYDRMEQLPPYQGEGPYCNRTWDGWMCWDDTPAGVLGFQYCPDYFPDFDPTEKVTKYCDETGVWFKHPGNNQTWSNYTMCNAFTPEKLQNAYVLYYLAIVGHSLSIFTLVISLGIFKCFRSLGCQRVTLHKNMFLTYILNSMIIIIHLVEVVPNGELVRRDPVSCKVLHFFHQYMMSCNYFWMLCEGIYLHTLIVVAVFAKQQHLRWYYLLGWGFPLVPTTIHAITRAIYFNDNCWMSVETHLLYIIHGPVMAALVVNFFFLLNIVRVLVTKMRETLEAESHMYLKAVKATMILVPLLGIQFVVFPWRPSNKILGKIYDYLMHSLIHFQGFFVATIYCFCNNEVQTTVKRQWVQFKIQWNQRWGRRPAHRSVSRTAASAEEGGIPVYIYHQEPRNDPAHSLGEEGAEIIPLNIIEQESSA
Assay: radioligand binding

CGNLSTCMLGTYTQDFNKFHTFPQTAIGVGAP (ligand, UniProt P01258 85-116, looked up, ends and bridges not checked; cysteine pairing not given here) [human calcitonin]
Ki: 610 pM
